Assay [1] addresses T1, CLEVER-1 coated on the ELISA plate (competition ELISA, Examples 5 and 10) (human, UniProt Q9NY15 26-1027, limits assumed).
T1 construct: Coated at 1 ug/ml in PBS; also called human Clever-1
T1 sequence (looked up): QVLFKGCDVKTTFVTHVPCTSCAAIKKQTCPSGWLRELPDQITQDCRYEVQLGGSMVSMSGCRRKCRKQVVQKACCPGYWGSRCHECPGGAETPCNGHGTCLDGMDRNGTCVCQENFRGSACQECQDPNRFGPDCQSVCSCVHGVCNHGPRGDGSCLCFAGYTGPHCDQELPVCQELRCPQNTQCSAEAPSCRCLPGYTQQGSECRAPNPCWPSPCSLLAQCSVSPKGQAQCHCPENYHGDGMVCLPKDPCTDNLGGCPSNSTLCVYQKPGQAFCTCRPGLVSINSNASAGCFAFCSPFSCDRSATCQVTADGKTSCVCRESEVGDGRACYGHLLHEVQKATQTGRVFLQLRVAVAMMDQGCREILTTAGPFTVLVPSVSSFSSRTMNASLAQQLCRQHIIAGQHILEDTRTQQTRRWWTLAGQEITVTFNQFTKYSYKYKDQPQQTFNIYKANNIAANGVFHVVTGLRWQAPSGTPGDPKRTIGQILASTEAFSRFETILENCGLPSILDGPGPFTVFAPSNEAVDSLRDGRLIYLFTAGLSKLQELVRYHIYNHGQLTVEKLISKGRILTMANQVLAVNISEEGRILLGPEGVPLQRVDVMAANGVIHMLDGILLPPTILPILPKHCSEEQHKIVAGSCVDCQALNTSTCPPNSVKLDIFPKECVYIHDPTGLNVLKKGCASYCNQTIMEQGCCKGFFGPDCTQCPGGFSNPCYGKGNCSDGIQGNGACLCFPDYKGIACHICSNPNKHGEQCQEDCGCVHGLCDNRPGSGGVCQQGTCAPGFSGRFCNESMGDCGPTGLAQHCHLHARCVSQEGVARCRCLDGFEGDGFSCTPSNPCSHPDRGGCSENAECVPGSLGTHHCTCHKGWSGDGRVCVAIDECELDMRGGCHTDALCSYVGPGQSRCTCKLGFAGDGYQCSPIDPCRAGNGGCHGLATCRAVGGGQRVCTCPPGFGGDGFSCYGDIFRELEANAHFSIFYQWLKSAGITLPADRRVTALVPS
Briefly: competition ELISA on coated CLEVER-1 against biotinylated mouse 3-372. How it is done: These were incubated for 1 hour at room temperature on a 96 well Immulon maxisorp plate (Fisher Cat. No. DIS-971-030J) precoated with 1 μg/ml CLEVER-1. […] The reaction was stopped with 3M HCl, absorbance read at 450 nm on a Dynex Technologies MRX TC II plate reader and the binding curves plotted. IC50 values for each antibody were calculated and these were normalized to the IC50 of the chimera which was included on each respective ELISA plate.

The target in assay [2] is T1, CLEVER-1 coated on the ELISA plate …. Briefly: competition ELISA on coated CLEVER-1 against 0.6 µg/ml biotinylated mouse 3-372. Here is the method: Briefly, a Nunc Immulon 96 well maxisorp plate (Fisher Cat. No. DIS-971-030J) was coated with CLEVER-1 at 1 μg/ml in PBS (100 μl/well) overnight at 4° C., with an additional 1 hour at 37° C. the following morning. Wells were washed with PBS/0.1% Tween 20 and then blocked for 45 min at room temperature, in 1% Marvel/1% BSA/PBS.
The blocked ELISA plate was washed as before and 100 μl of the premixed antibodies added to each well. The plate was incubated for 1 hour at room temperature.
This confirms that the correct variable region sequences have been identified and expressed in the chimeric antibody.

This note sets out measurements from patent publication US20190194317A1 (FARON PHARMACEUTICALS, published 2019).

B1: chimeric 3-372 IgG4 (antibody, V domains shown)
VH: QVTLKESGPGILQPSQTLSLTCSFSGFSLNTSGMGIGWIRQPSGKGLEWLAHIWWDDDKRYNPALKSRLTISKDTSSNQVFLKIASVDTADTATYYCARHYGYDPYYAMDYWGQGTSVTVSS
VL: QIVLTQSPAIMSASLGERVTMTCTASSSVSSSYLHWYQQRPGSSPKLCIYRTSNLASGVPPRFSGSGSGTSYSLTISSMEAEDAATYYCHQYHRSPPTFGGGTKLEIN
notes: Expressed in NSO cells; also called CH/CK; chimera
As to B1, the “Relative IC50” value in assay [1] was 1 relative to the chimera on the same plate. Moreover, the IC50 (in general, the point on the concentration scale where inhibition reaches its midpoint) in assay [2] was 0.89 µg/mL.

B2: mouse monoclonal antibody 3-372 (DSM ACC2520) (antibody, V domains shown)
VH: QVTLKESGPGILQPSQTLSLTCSFSGFSLNTSGMGIGWIRQPSGKGLEWLAHIWWDDDKRYNPALKSRLTISKDTSSNQVFLKIASVDTADTATYYCARHYGYDPYYAMDYWGQGTSVTVSS
VL: QIVLTQSPAIMSASLGERVTMTCTASSSVSSSYLHWYQQRPGSSPKLCIYRTSNLASGVPPRFSGSGSGTSYSLTISSMEAEDAATYYCHQYHRSPPTFGGGTKLEIN
notes: Mouse hybridoma antibody with kappa light chain
Consider B2, for which the IC50 in assay [2] came to 0.77 µg/mL.

B3: humanized anti-CLEVER-1 antibody FAR02 VH3/VK5 (antibody, V domains shown)
VH: QVTLKESGPTLVKPTQTLTLTCSFSGFSLSTSGMGIGWIRQPPGKALEWLAHIWWDDDKRYNPALKSRLTISKDTSKNQVVLTMTNMDPVDTATYYCARHYGYDPYYAMDYWGQGTLVTVSS
VL: EIVLTQSPGTLSLSPGERATLSCTASSSVSSSYLHWYQQKPGKAPKLLIYRTSNLASGVPSRFSGSGSGTDYTLTISSLQPEDFATYYCHQYHRSPPTFGQGTKLEIK
notes: Named as a potential lead; also called FAR02 VH3A/K5
B3: the “Relative IC50” value in assay [1] is 0.42 relative to the chimera on the same plate.
